Consider one molecule from publication PMC10404699, “SAMHD1 impairs type I interferon induction through the MAVS, IKKε, and IRF7 signaling axis during viral infection” (The Journal of Biological Chemistry, 2023).

The test concerns the target T1, recombinant N-terminal His-tagged full-length SAMHD1 (human, UniProt Q9Y3Z3 1-626).
T1 construct: also called recombinant FL SAMHD1; recombinant SAMHD1
The test can be described thus: pull-down; in vitro pull-down of purified recombinant proteins with an anti-SAMHD1 antibody, analyzed by immunoblot; performed as described in ref. 16. Conditions: both partners purified. (In general: Immunoblotting shows a protein as a band on a membrane.)

T1 sequence (Q9Y3Z3 whole entry): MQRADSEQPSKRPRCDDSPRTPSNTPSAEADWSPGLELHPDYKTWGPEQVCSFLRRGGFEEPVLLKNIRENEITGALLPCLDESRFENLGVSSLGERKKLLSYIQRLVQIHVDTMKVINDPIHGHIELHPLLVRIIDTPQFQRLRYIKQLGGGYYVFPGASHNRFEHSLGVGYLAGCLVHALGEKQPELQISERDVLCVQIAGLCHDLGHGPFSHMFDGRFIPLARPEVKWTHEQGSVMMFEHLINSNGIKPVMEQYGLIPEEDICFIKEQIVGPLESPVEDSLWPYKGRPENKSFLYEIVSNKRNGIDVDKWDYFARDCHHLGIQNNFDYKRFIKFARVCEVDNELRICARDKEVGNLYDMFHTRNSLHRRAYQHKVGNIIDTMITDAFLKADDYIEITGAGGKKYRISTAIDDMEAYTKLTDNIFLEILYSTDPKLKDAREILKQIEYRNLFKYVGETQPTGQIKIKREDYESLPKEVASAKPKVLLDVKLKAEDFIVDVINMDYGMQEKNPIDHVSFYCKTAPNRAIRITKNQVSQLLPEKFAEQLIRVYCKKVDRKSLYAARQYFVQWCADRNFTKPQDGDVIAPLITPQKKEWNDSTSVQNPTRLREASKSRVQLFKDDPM

B1: purified His-tagged MAVS without the TM domain (aa 1-513) (domain or fragment, human, UniProt Q7Z434 1-513, looked up)
chain: MPFAEDKTYKYICRNFSNFCNVDVVEILPYLPCLTARDQDRLRATCTLSGNRDTLWHLFNTLQRRPGWVEYFIAALRGCELVDLADEVASVYQSYQPRTSDRPPDPLEPPSLPAERPGPPTPAAAHSIPYNSCREKEPSYPMPVQETQAPESPGENSEQALQTLSPRAIPRNPDGGPLESSSDLAALSPLTSSGHQEQDTELGSTHTAGATSSLTPSRGPVSPSVSFQPLARSTPRASRLPGPTGSVVSTGTSFSSSSPGLASAGAAEGKQGAESDQAEPIICSSGAEAPANSLPSKVPTTLMPVNTVALKVPANPASVSTVPSKLPTSSKPPGAVPSNALTNPAPSKLPINSTRAGMVPSKVPTSMVLTKVSASTVPTDGSSRNEETPAAPTPAGATGGSSAWLDSSSENRGLGSELSKPGVLASQVDSPFSGCFEDLAISASTSLGMGPCHGPEENEYKSEGTFGIHVAENPSIQLLEGNPGPPADPDGGPRPQADRKFQEREVPCHRPSP
notes: also called MAVS without TM; recombinant MAVS without the TM domain; source: bought: Origene (AR50771PU-N); purified from E. coli
For B1, the binding result is “binds”.
